Test results: patent US10377818B2, “Method of treating glioma” (The Board of Trustees of the Leland Stanford Junior …, priority 2015, dated 2019)

B1: NLGN2: Recombinant soluble neuroligin-2 (protein, UniProt Q8NFZ4 15-677, looked up)
extracellular domain: QRGGGGPGGGAPGGPGLGLGSLGEERFPVVNTAYGRVRGVRRELNNEILGPVVQFLGVPYATPPLGARRFQPPEAPASWPGVRNATTLPPACPQNLHGALPAIMLPVWFTDNLEAAATYVQNQSEDCLYLNLYVPTEDGPLTKKRDEATLNPPDTDIRDPGKKPVMLFLHGGSYMEGTGNMFDGSVLAAYGNVIVATLNYRLGVLGFLSTGDQAAKGNYGLLDQIQALRWLSENIAHFGGDPERITIFGSGAGASCVNLLILSHHSEGLFQKAIAQSGTAISSWSVNYQPLKYTRLLAAKVGCDREDSAEAVECLRRKPSRELVDQDVQPARYHIAFGPVVDGDVVPDDPEILMQQGEFLNYDMLIGVNQGEGLKFVEDSAESEDGVSASAFDFTVSNFVDNLYGYPEGKDVLRETIKFMYTDWADRDNGEMRRKTLLALFTDHQWVAPAVATAKLHADYQSPVYFYTFYHHCQAEGRPEWADAAHGDELPYVFGVPMVGATDLFPCNFSKNDVMLSAVVMTYWTNFAKTGDPNQPVPQDTKFIHTKPNRFEEVVWSKFNSKEKQYLHIGLKPRVRDNYRANKVAFWLELVPHLHNLHTELFTTTTRLPPYATRWPPRPPAGAPGTRRPPPPATLPPEPEPEPGPRAYDRFPGDSRDYSTELS
modifications: extracellular domain
B2: brevican: Recombinant candidate protein from proteomic analyses of cortical slice conditioned media (protein, UniProt Q96GW7 23-911, looked up)
Brevican core protein: DVLEGDSSEDRAFRVRIAGDAPLQGVLGGALTIPCHVHYLRPPPSRRAVLGSPRVKWTFLSRGREAEVLVARGVRVKVNEAYRFRVALPAYPASLTDVSLALSELRPNDSGIYRCEVQHGIDDSSDAVEVKVKGVVFLYREGSARYAFSFSGAQEACARIGAHIATPEQLYAAYLGGYEQCDAGWLSDQTVRYPIQTPREACYGDMDGFPGVRNYGVVDPDDLYDVYCYAEDLNGELFLGDPPEKLTLEEARAYCQERGAEIATTGQLYAAWDGGLDHCSPGWLADGSVRYPIVTPSQRCGGGLPGVKTLFLFPNQTGFPNKHSRFNVYCFRDSAQPSAIPEASNPASNPASDGLEAIVTVTETLEELQLPQEATESESRGAIYSIPIMEDGGGGSSTPEDPAEAPRTLLEFETQSMVPPTGFSEEEGKALEEEEKYEDEEEKEEEEEEEEVEDEALWAWPSELSSPGPEASLPTEPAAQEESLSQAPARAVLQPGASPLPDGESEASRPPRVHGPPTETLPTPRERNLASPSPSTLVEAREVGEATGGPELSGVPRGESEETGSSEGAPSLLPATRAPEGTRELEAPSEDNSGRTAPAGTSVQAQPVLPTDSASRGGVAVVPASGDCVPSPCHNGGTCLEEEEGVRCLCLPGYGGDLCDVGLRFCNPGWDAFQGACYKHFSTRRSWEEAETQCRMYGAHLASISTPEEQDFINNRYREYQWIGLNDRTIEGDFLWSDGVPLLYENWNPGQPDSYFLSGENCVVMVWHDQGQWSDVPCNYHLSYTCKMGLVSCGPPPELPLAQVFGRPRLRYEVDTVLRYRCREGLAQRNLPLIRCQENGRWEAPQISCVPRRPARALHPEEDPEGRQGRLLGRWKALLIPPSSPMPGP

System: SU-pcGBM2 cells
Assay: EdU incorporation assay, proliferation index of pHGG cells (SU-pcGBM2)
Type: cell-based, human

Row | Molecule | effect on pHGG cell proliferation (recombinant NLGN2 at 1, 10 or 100 nM for 24 hours) | effect on proliferation index relative to aCSF control (recombinant candidate proteins at 100 nM for 24 hours)
1 | B1 | No effect of NLGN2 on pHGG cell proliferation was observed | –
2 | B2 | – | did not differ
